Where two headings read alike, the source gives them in different places. *1 amine or outer side, *2 acyl side, *3 side chain or, on linkers, in order; H or OH if unused. Bridges are numbered along the chain shown (N, C = ends). Primed or numbered codes have the meaning given here. Where no end group is shown, it is not given here. [ ]: non-standard residue; d: D form. CO(CH2)2(OCH2CH2)17CO = O=C(CCOCCOCCOCCOCCOCCOCCOCCOCCOCCOCCOCCOCCOCCOCCOCCOCCOCCC(=O)[*:2])[*:1]; Met(O2) = CS(=O)(=O)CC[C@H](N)C(=O)O; hTyr = N[C@@H](CCc1ccc(O)cc1)C(=O)O; Hyp = O=C(O)[C@@H]1C[C@@H](O)CN1; hArg = N=C(N)NCCCC[C@H](N)C(=O)O; hPhe = N[C@@H](CCc1ccccc1)C(=O)O; Chg = N[C@H](C(=O)O)C1CCCCC1; Tle = CC(C)(C)[C@H](N)C(=O)O; F4aao = not defined here; Ahp′ = not defined here; H4Py = not defined here; Atb = not defined here; F4C = not defined here; Yph = not defined here
B1: Peptide complex Dimer Structure No. 40 (peptide)
peptide: {CH2CO}-WW[hTyr]DVKDDLY[F4G]VDCG-NH2
modifications: thioether N-14; also: homodimer: Lys6 joined to Lys6 of second copy by OCOPEG13OCO (Linker Structure No. 5)
B2: Peptide complex Dimer Structure No. 26 (peptide)
peptide: {CH2CO}-WW[Tle]QVKDDLYF[hTyr]DCG-NH2
modifications: thioether N-14; not fully specified (residue 6); also: homodimer: Lys6 joined to Lys6 of second copy by cPEG17c (Linker Structure No. 4)
B3: Peptide complex Dimer Structure No. 36 (peptide)
peptide: {CH2CO}-WW[Tle]DV[Ahp′]DDLYF[hTyr]DCG
modifications: thioether N-14; not fully specified (C-terminus); reading uncertain; also: dimer: Gly15 C-terminus joined to second copy by PEG12c-K-PEG12c (Linker Structure No. 1)
B4: Peptide complex Dimer Structure No. 55 (peptide)
peptide: {CH2CO}-WW[Tle]DVKDD[Atb]Y[F4G][hTyr]DCG-NH2
modifications: thioether N-14; reading uncertain; also: dimer: Lys6 joined to Lys6 of second copy by OCOPEG13OCO (Linker Structure No. 5)
B5: Peptide complex Dimer Structure No. 50 (peptide)
peptide: {CH2CO}-WWVDVKDDLYFVDCG-NH2
modifications: thioether N-14; also: homodimer: Lys6 joined to Lys6 of second copy by OCOPEG17OCO (Linker Structure No. 6)
B6: Peptide complex Dimer Structure No. 34 (peptide)
peptide: {CH2CO}-WW[Tle]DVKDDLYF[hTyr]FCG-NH2
modifications: thioether N-14; also: homodimer: Lys6 joined to Lys6 of second copy by cPEG17c (Linker Structure No. 4)
B7: Peptide complex Dimer Structure No. 32 (peptide)
peptide: {CH2CO}-WW[Tle]DVK(CO(CH2)2(OCH2CH2)17CO)DDLYF[H4Py]DCG-NH2
modifications: thioether N-14; reading uncertain; also: dimer joined at Lys6 side chains by cPEG17c
B8: Peptide complex Dimer Structure No. 37 (peptide)
peptide: {CH2CO}-WWVDVKGVNYF[hTyr]DCG-NH2
modifications: thioether N-14; also: homodimer: Lys6 joined to Lys6 of second copy by OCOPEG13OCO (Linker Structure No. 5)
B9: Peptide complex Dimer Structure No. 44 (peptide)
peptide: {CH2CO}-WW[Tle]DVKDDLYF[hTyr]DCG-NH2
modifications: thioether N-14; also: homodimer: Lys6 joined to Lys6 of second copy by cPEG17c (Linker Structure No. 4)
B10: Peptide complex Dimer Structure No. 54 (peptide)
peptide: {CH2CO}-WW[Tle]DVKDD[Atb]Y[F4G][hTyr][Hyp]CG-NH2
modifications: thioether N-14; reading uncertain; also: dimer: Lys6 joined to Lys6 of second copy by OCOPEG13OCO (Linker Structure No. 5)
B11: Peptide complex Dimer Structure No. 57 (peptide)
peptide: {CH2CO}-WW[hTyr]DVKDD[Atb]Y[F4G][hTyr]DCG-NH2
modifications: thioether N-14; reading uncertain; also: dimer: Lys6 joined to Lys6 of second copy by OCOPEG13OCO (Linker Structure No. 5)
B12: Peptide complex Dimer Structure No. 56 (peptide)
peptide: {CH2CO}-WW[hTyr]DVKDD[Atb]Y[F4G]VDCG-NH2
modifications: thioether N-14; reading uncertain; also: dimer: Lys6 joined to Lys6 of second copy by OCOPEG13OCO (Linker Structure No. 5)
B13: Peptide complex Dimer Structure No. 30 (peptide)
peptide: {CH2CO}-WW[Tle]DVKDDLY[F4C][hTyr]DCG-NH2
modifications: thioether N-14; not fully specified (residue 6); reading uncertain; also: homodimer: Lys6 joined to Lys6 of second copy by cPEG17c (Linker Structure No. 4)
B14: Peptide complex Dimer Structure No. 4 (peptide)
peptide: {CH2CO}-WWVDV[hPhe]DDLYFVDCG
modifications: thioether N-14; also: dimer: C-terminus joined to second copy by PEG12c-K-PEG12c
B15: Peptide complex Dimer Structure No. 39 (peptide)
peptide: {CH2CO}-WWVDVKDDLY[Yph]V[hArg]CG-NH2
modifications: thioether N-14; reading uncertain; also: homodimer: Lys6 joined to Lys6 of second copy by OCOPEG13OCO (Linker Structure No. 5)
B16: Peptide complex Dimer Structure No. 11 (peptide)
peptide: {CH2CO}-WWVDVQDDLYFVSCG
modifications: thioether N-14; also: dimer: Gly15 C-terminus joined to second copy by PEG12c-K-PEG12c
B17: Peptide complex Dimer Structure No. 35 (peptide)
peptide: {CH2CO}-WW[Tle]DVKDDLYF[hTyr][F4aao]CG-NH2
modifications: thioether N-14; reading uncertain; also: homodimer: Lys6 joined to Lys6 of second copy by cPEG17c (Linker Structure No. 4)
B18: Peptide complex Dimer Structure No. 10 (peptide)
peptide: {CH2CO}-WWVDVQDDLYFVACG
modifications: thioether N-14; also: dimer: Gly15 C-terminus joined to second copy by PEG12c-K-PEG12c
B19: Peptide complex Dimer Structure No. 12 (peptide)
peptide: {CH2CO}-WWVDVQDDLYFVDCG
modifications: thioether N-14; also: dimer: Gly15 C-terminus joined to second copy by K-cPEG17c-K
B20: Peptide complex Dimer Structure No. 38 (peptide)
peptide: {CH2CO}-WWV[Met(O2)]VKDDLYF[hTyr]DCG-NH2
modifications: thioether N-14; also: homodimer: Lys6 joined to Lys6 of second copy by OCOPEG13OCO (Linker Structure No. 5)
B21: Peptide complex Dimer Structure No. 48 (peptide)
peptide: {CH2CO}-WW[Tle]DVKDD[Atb]YF[hTyr]DCG-NH2
modifications: thioether N-14; reading uncertain; also: homodimer: Lys6 joined to Lys6 of second copy by cPEG17c (Linker Structure No. 4)
B22: Peptide complex Dimer Structure No. 28 (peptide)
peptide: {CH2CO}-WW[Tle]D[Chg]KDDLYF[hTyr]DCG-NH2
modifications: thioether N-14; not fully specified (residue 6); also: homodimer: Lys6 joined to Lys6 of second copy by cPEG17c (Linker Structure No. 4)
B23: Peptide complex Dimer Structure No. 41 (peptide)
peptide: {CH2CO}-WWVDVKDDLY[F4G][hTyr][Hyp]CG-NH2
modifications: thioether N-14; also: homodimer: Lys6 joined to Lys6 of second copy by OCOPEG13OCO (Linker Structure No. 5)

What was measured:
[1] = biological target: T1, VEGFR-2 (human, UniProt P35968 20-1356); experiment: cell-based or functional assay
T1 sequence (P35968 20-1356): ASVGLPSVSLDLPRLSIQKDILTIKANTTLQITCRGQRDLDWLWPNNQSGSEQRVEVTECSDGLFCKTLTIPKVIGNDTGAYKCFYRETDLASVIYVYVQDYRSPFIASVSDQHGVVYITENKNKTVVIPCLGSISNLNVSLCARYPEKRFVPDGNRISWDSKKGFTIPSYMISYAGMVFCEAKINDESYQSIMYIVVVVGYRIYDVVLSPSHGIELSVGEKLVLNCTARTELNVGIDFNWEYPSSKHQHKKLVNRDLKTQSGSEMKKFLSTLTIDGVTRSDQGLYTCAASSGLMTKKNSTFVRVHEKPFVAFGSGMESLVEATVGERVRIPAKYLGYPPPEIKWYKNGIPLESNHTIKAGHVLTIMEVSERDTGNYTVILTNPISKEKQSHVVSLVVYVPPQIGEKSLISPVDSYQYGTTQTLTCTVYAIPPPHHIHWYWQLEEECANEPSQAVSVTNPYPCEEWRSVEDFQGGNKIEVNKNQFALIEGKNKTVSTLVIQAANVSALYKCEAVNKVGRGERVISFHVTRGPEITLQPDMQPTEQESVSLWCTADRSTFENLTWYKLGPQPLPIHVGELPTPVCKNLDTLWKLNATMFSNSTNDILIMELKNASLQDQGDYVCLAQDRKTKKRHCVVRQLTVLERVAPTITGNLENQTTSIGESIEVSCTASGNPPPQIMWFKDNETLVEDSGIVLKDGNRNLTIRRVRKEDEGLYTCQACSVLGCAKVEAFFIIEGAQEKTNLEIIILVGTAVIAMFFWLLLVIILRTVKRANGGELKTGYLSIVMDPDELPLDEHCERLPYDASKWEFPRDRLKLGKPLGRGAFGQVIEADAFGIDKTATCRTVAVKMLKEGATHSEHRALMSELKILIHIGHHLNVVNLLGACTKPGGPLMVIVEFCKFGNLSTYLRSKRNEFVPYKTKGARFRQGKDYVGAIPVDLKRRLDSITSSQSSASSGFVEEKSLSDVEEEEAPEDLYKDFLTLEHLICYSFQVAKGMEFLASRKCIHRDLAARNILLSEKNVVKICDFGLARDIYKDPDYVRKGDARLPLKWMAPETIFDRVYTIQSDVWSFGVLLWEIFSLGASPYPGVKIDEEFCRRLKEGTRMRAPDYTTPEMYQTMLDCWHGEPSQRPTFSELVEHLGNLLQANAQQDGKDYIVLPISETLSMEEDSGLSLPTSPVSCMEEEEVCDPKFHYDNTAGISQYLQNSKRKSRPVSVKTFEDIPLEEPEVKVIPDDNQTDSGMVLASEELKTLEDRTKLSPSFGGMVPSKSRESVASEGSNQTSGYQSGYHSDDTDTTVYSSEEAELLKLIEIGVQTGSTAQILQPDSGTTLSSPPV

[2] = biological target: T1, VEGFR-2; experiment: cell-based or functional assay; remark: listed apart in the source

Row | Binder | pERK Assay Results (AlphaLISA p-Erk1/2, HUVEC) [1] | pERK Assay Results (AlphaLISA p-Erk1/2, HUVEC) [2]
1 | {CH2CO}-WWVDVQDDLY[Bph]VDCG (thioether N-14; also: dimer: C-termini joined by PEG12c-K-PEG12c linker) [Peptide complex Dimer Structure No. 8] | < 50 % activity at 100 nM | 
2 | B1 |  | ≥ 50 % activity at 10 nM
3 | B2 |  | ≥ 50 % activity at 100 nM
4 | B3 |  | ≥ 50 % activity at 100 nM
5 | B4 |  | ≥ 50 % activity at 5 nM
6 | B5 |  | ≥ 50 % activity at 20 nM
7 | B6 |  | ≥ 50 % activity at 10 nM
8 | B7 |  | ≥ 50 % activity at 10 nM
9 | {CH2CO}-WWVDV[F4COO]DDLYFVDCG (thioether N-14; also: dimer: C-termini joined by PEG12c-K-PEG12c linker) [Peptide complex Dimer Structure No. 6] | ≥ 50 % activity at 100 nM | 
10 | B8 |  | ≥ 50 % activity at 100 nM
11 | B9 |  | ≥ 50 % activity at 20 nM
12 | B10 |  | ≥ 50 % activity at 5 nM
13 | B11 |  | ≥ 50 % activity at 20 nM
14 | {CH2CO}-WWVDVQDDLYF[hPhe]DCG (thioether N-14; also: dimer: C-termini joined by PEG12c-K-PEG12c linker) [Peptide complex Dimer Structure No. 9] | < 50 % activity at 100 nM | 
15 | B12 |  | ≥ 50 % activity at 20 nM
16 | B13 |  | ≥ 50 % activity at 10 nM
17 | B14 | ≥ 50 % activity at 10 nM | 
18 | B15 |  | ≥ 50 % activity at 100 nM
19 | B16 | < 50 % activity at 100 nM | 
20 | B17 |  | ≥ 50 % activity at 10 nM
21 | B18 | < 50 % activity at 100 nM | 
22 | B19 | < 50 % activity at 100 nM | 
23 | B20 |  | ≥ 50 % activity at 100 nM
24 | B21 |  | ≥ 50 % activity at 20 nM
25 | {CH2CO}-WWVDVWDDLYFVDCG (thioether N-14; also: dimer joined at Gly15 C-termini by PEG12c-K-PEG12c) [Peptide complex Dimer Structure No. 3] | ≥ 50 % activity at 10 nM | 
26 | B22 |  | ≥ 50 % activity at 10 nM
27 | {CH2CO}-WWVDVQGDLYFVDCG (thioether N-14; also: dimer: C-termini joined by PEG12c-K-PEG12c linker) [Peptide complex Dimer Structure No. 7] | ≥ 50 % activity at 100 nM | 
28 | B23 |  | ≥ 50 % activity at 10 nM

— patent EP4748847A1, “PEPTIDE COMPLEX HAVING VEGFR -2 AGONIST ACTIVITY” (Peptidream Inc, priority 2023, dated 2025)
